{"source": "patent US20210388331A1", "about": "(NEURO BIO, published 2021)", "target": "T1, α7 nicotinic-receptor (in rat brain slices / rat brain membranes) (rat, UniProt Q05941 23-502)", "T1 construct": "whole, on cells; also called α7 receptor; alpha-7 nicotinic acetylcholine receptor", "T1 sequence (Q05941 23-502)": "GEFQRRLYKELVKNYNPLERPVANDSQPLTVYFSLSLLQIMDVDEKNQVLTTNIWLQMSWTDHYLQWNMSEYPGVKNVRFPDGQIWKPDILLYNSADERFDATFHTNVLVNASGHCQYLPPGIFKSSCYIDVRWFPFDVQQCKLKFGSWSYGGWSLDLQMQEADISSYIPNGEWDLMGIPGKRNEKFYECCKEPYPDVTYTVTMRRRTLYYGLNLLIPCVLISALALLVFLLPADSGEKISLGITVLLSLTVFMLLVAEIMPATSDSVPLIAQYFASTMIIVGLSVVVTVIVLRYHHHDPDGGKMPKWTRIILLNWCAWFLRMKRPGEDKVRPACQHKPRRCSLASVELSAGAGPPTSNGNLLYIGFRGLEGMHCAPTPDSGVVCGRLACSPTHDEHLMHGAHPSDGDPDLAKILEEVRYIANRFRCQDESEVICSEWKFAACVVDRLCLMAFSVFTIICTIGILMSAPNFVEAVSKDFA", "assay": "[3H] ivermectin displacement, rat brain membranes (told in the legend of FIG. 6 only)"}
{"binder": "AEFHRWSSYMVHWK (also called linear T14)", "note": "[T14 (AChE C-terminal peptide, linear)]", "values": [{"measurement": "binding result", "result": "binds"}]}
